Assays:
[1] = biological target: Zaire ebolavirus (ZEBOV) GP (Zaire ebolavirus) (UniProt Q05320); assay: cell-based or functional assay
[2] = biological target: T1, Zaire ebolavirus (ZEBOV) GP (Zaire ebolavirus, UniProt Q05320 33-676); assay: flow cytometry on infected Vero cells (FIG. 15)
T1 construct: whole, on cells; also called Zaire GP
T1 sequence: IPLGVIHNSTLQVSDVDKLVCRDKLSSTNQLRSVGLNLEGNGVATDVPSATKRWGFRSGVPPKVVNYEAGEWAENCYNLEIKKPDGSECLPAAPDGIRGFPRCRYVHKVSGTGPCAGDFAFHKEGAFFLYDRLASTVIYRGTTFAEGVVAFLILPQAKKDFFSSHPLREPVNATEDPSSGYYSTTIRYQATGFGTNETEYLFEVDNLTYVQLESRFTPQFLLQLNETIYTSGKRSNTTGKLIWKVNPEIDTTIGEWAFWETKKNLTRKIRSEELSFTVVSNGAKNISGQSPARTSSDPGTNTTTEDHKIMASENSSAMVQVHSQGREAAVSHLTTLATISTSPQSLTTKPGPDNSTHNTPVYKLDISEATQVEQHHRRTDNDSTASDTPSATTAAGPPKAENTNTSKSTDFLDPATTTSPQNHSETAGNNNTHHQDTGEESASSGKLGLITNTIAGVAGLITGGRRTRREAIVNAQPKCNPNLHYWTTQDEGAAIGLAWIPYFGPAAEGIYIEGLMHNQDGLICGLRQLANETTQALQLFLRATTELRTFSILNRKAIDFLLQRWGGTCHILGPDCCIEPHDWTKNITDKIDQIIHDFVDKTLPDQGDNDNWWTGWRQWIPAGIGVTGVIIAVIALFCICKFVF

monoclonal antibody KZ52
neutralization of Zaire GP-pseudotyped VSV on 293 cells [1]: 90%

B1: monoclonal antibody 16F6 (murine IgG1) (antibody, V domains shown)
VH: EVQLVESGGGLVTPGGSLKLSCAASGFAFNYYDMFWVRQNTEKRLEWVAYINSGGGNTYYPDTVKGRFTISRDNAKKTLFLQMSSLRSEDTAMYYCARQLYGNSFFDYWGQGTSLTVSA
VL: DIVMTQSHKFMSTSVGDRVTITCKASQDVTTAVAWYQQKPGHSPKLLIYWASTRHTGVPDRFTGSGSGTDFTLTLNSVQAEDLALYYCQQHYSTPLTFGAGTKLELK
notes: also called mAb 16F6; MAb 16F6
binding result [2]: no binding

Reference: patent US20120164153A1 (GOVERNMENT OF THE UNITED STATES AS REPRESENTED BY THE …, published 2012)
